Measured values: patent US20180230225A1 (LEGEND BIOTECH USA, published 2018)
Positions count from the first letter of the chain named.

T1: recombinant human CD38 protein having a C-terminal His tag (ACRO Biosystems, Cat No.: CD8-H5224) (human, UniProt P28907 43-300)
T1 construct: Bought protein; not shown: C-terminal His tag
T1 sequence (looked up): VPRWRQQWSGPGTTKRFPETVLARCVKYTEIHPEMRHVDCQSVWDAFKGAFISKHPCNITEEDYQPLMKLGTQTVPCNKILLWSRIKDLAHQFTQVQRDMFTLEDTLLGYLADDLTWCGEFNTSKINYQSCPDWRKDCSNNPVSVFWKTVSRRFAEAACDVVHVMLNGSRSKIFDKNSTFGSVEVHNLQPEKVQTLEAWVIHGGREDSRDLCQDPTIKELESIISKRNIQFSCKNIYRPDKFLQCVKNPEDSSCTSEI

T2: recombinant human BCMA protein having a C-terminal Fc tag (ACRO Biosystems, Cat No.: BC7-H5254) (human, UniProt Q02223 1-54)
T2 construct: Bought protein; Clones were also screened on CHO cells expressing human BCMA (CHO-BCMA); also called CD269; not shown: C-terminal Fc tag
T2 sequence (looked up): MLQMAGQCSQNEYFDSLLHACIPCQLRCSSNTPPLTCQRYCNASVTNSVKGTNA

B1: 38A37699 (VHH)
VHH: QVQLVESGGGLVQAGGSLRLSCAASGRIFSINAMGWYRQAPGKQRELVAAISTAGSTNYGDSVKGRFTISRDNAKNTVYLQMNSLKPEDTAVYYCNLNFPPYVYWGQGTQVTVSS
notes: Llama VHH from an immune phage library; also called anti-CD38 sdAb
B2: 38A37333 (VHH)
VHH: DVQLVESGGGLVQPGGSLRLSCVASGLTFSSYPMMWVRQAPGKGLEWVSRISDSGGYTNYDDSVKGRFTISRDNAKNTLYLQMNSLTPEDTAVYYCRILGLPTTGQGTQVTVSS
notes: as for B1
B3: 38A37731 (VHH)
VHH: QVKLEESGGGLVQAGGSLRLSCVASGTIVSISTMGWYRQAPGKQRELVATITRRGRTNYTDSVKGRFTISRDNAKNTVYLQMNSLKPEDTAVYYCNAEVQLDIWASAYDYWGQGTQVTVAS
notes: as for B1
B4: 38A37326 (VHH)
VHH: EVQLVESGGGLVQAGGSLRLSCAASGRTYAMGWYRQAPGKQRDLVATISGAGNTKYADSVKGRFTISRDNAKNTMYLQMNSLKPEDTAVYYCAAGKWFPAANEYWGQGTQVTVSS
notes: as for B1
B5: 38A37330 (VHH)
VHH: QVQLVESGGGLVQAGDSLRLSCAASGRAYATMAWFRQAPGKEREFVAHLRVSGDTTYYTDSVKGRFTISRDNAKNTAYLQMNMLKPEDTAVYYCAAGPYGILAAARVSNPGNYDYWGQGTQVTVSS
notes: as for B1
B6: 38A37334 (VHH)
VHH: EVQLVESGGGLVQAGGSLRLSCAASGLTFSSYIMGWFRQAPGEERELVAEISSGGMTSYADSVKGRFTISRDNAKKTGYLQMNSLKPEDTAVYYCAAPERGSIWYSRYEYKYWGQGTQVTVSS
notes: as for B1
B7: 38A37340 (VHH)
VHH: DVQLVESGGGLVQAGDSLRLSCAASGRTFSSYAMAWFRQAPGKEREIVSSISTSGGITDYADSVKGRFTISKDSAKMNTVYLQMNSLEPEDTAVYYCAARTWYLRTSLQYDYWGQGTQVTVSS
notes: as for B1
B8: 38A37331 (VHH)
VHH: QVKLEESGGGLVQPGESLRLSCSASGSIFKVFRVFAMSWYRQGPGKQRELVASISSGETTTYADSVKGRFTISRDNAKNTAYLQMDSLKPEDTAVYYCNADHTFTGDFWGQGTQVTVSS
notes: as for B1
B9: 38A37336 (VHH)
VHH: EVQLVESGGGLVQPGGSLRLSCAASGFTFSSNWMYWVRQAPGKGLEWVATISTDGRGTYYKDSVKGRFTVSRDNAMSTLLLQMNNLKSEDTAVYYCAKEPRVLMAYLRNLGDFGSWGQGTQVTVSS
notes: as for B1
B10: 38A37719 (VHH)
VHH: QVKLEESGGGSVQTGGSLRLSCAASASIFTRLPMGWYRQAPGKQRELVVGIVPSGRINYADSVKGRFTISRDNAKNTVYLQMNSLRPEDTAVYYCRADTFPLPTWGQGTQVTVSS
notes: as for B1
B11: 269A37948 (VHH)
VHH: AVQLVESGGGLVQAGDSLRLTCTASGRAFSTYFMAWFRQAPGKEREFVAGIAWSGGSTAYADSVKGRFTISRDNAKNTVYLQMNSLKSEDTAVYYCASRGIEVEEFGAWGQGTQVTVSS
notes: Llama VHH from an immune phage library; also called anti-BCMA sdAb
B12: 269A37915 (VHH)
VHH: EVQLVESGGGLVQAGGSLRLSCAASGRTFSSIVMGWFRQAPGKEREFVGAIMWNDGITYLQDSVKGRFTIFRDNAKNTVYLQMNSLKLEDTAVYYCAASKGRYSEYEYWGQGTQVTVSS
notes: as for B11
B13: 269A37953 (VHH)
VHH: B12 VHH with L11M, G16D, A23V, A24Q, G26T, R27Y, F29V, S30N, I32D
notes: as for B11
B14: 269A37936 (VHH)
VHH: EVQLVESGGGVVQAGGSLTVSCTASGFTFDRAVIVWFRQAPGKGREGVSFIKPSDGTIYYIDSLKGRFTISSDIAKNTVYLQMKSLESEDSAVYYCAASPEDWYTDWIDWSIYRWQHWGQGTQVTVSS
notes: as for B11
B15: 269A37972 (VHH)
VHH: QVQLVESGGGLVQAGGSLRLSCAASGGTLSKNTVAWFRQAPGKERGFVASITWDGRTTYYADSVKGRFTISRDNAKNTVYLQMNSLKPEDTAVYVCADLGKWPAGPADYWGQGTQVTVSS
notes: as for B11
B16: 269A37355 (VHH)
VHH: AVQLVDSGGGLVQPGGSLRLSCVASGGIFVINAMGWYRQAPGKQRELVASIRGLGRTNYDDSVKGRFTISRDNANNTVYLQMNSLEPEDTAVYYCTVYVTLLGGVNRDYWGQGTQVTVSS
notes: as for B11
B17: 269A37965 (VHH)
VHH: AVQLVESGGGLVQAGDSLRLSCTASGATLTNDHMAWFRQAPGKGREFVAAIDWSGRTTNYADPVEGRFTISRNNAKNTVYLEMNSLKLEDTAVYYCAVLRAWISYDNDYWGQGTQVTVSS
notes: as for B11

These binders were tested against T1, recombinant human CD38 protein having a … (assay: phage ELISA on the recombinant antigen, by a process similar to the one described for BCMA).
B1: binds.
B2: binds.
B3: binds.
B4: binds.
B5: binds.
B6: binds.
B7: binds.
B8: binds.
B9: binds.
B10: binds.

The binders below were run against T2, recombinant human BCMA protein having a … (assay: phage ELISA: plate coated with recombinant human BCMA protein (Fc control protein in parallel) or CHO-BCMA cells; phage supernatant, HRP anti-M13, A450).
Experimental: Phage ELISA was performed to identify clones specific to the target antigens. Individual output phage clones were grown in 96-deep-well plate and rescued by M13KO7 helper phage overnight. To identify clones that bind to antigen proteins, 96-well ELISA microtiter plates were coated with recombinant human BCMA protein and Fc control protein respectively in coating buffer overnight at 4° C., and the plates were then blocked with blocking buffer. After blocking, approximately 50 μl per well of phage supernatant from the overnight cell culture was added to the plates for 1.5-hour incubation at 4° C. The plates were washed four times, and the HRP-conjugated anti-M13 monoclonal antibody was added to the plates for 45-minute incubation at 4° C. The plates were again washed five times and substrate solution was added to the wells for developing. Absorption at 450 nm was measured for each well.
To identify clones that bind CHO-BCMA cells, the CHO-BCMA cells were blocked with blocking buffer at room temperature for 1 hour. After blocking, approximately 20 μl per well of phage supernatant from the overnight cell culture was added to the cell solutions for 1-hour incubation at room temperature. After the cells were washed 4 times, the HRP-conjugated anti-M13 monoclonal antibody was added for 30-minute incubation at room temperature. The cells were washed five times and substrate solution was then added for developing. The absorption was measured at 450 nm.
B11: binds.
B12: binds.
B13: binds.
B14: binds.
B15: binds.
B16: binds.
B17: binds.
